Measurements published in article doi:10.1101/464701 (bioRxiv, 2018).

B1: MukF (E. coli kleisin of MukBEF) (natural protein)
chain: MSEFSQTVPELVAWARKNDFSISLPVDRLSFLLAVATLNGERLDGEMSEGELVDAFRHVSDAFEQTSETIGVRANNAINDMVRQRLLNRFTSEQAEGNAIYRLTPLGIGITDYYIRQREFSTLRLSMQLSIVAGELKRAADAAEEGGDEFHWHRNVYAPLKYSVAEIFDSIDLTQRLMDEQQQQVKDDIAQLLNKDWRAAISSCELLLSETSGTLRELQDTLEAAGDKLQANLLRIQDATMTHDDLHFVDRLVFDLQSKLDRIISWGQQSIDLWIGYDRHVHKFIRTAIDMDKNRVFAQRLRQSVQTYFDEPWALTYANADRLLDMRDEEMALRDEEVTGELPEDLEYEEFNEIREQLAAIIEEQLAVYKTRQVPLDLGLVVREYLSQYPRARHFDVARIVIDQAVRLGVAQADFTGLPAKWQPINDYGAKVQAHVIDKY

Legend:
[1] = target: T1, MukB (E. coli SMC protein of MukBEF) (E. coli, UniProt P22523 1-1486); assay: SEC
T1 sequence: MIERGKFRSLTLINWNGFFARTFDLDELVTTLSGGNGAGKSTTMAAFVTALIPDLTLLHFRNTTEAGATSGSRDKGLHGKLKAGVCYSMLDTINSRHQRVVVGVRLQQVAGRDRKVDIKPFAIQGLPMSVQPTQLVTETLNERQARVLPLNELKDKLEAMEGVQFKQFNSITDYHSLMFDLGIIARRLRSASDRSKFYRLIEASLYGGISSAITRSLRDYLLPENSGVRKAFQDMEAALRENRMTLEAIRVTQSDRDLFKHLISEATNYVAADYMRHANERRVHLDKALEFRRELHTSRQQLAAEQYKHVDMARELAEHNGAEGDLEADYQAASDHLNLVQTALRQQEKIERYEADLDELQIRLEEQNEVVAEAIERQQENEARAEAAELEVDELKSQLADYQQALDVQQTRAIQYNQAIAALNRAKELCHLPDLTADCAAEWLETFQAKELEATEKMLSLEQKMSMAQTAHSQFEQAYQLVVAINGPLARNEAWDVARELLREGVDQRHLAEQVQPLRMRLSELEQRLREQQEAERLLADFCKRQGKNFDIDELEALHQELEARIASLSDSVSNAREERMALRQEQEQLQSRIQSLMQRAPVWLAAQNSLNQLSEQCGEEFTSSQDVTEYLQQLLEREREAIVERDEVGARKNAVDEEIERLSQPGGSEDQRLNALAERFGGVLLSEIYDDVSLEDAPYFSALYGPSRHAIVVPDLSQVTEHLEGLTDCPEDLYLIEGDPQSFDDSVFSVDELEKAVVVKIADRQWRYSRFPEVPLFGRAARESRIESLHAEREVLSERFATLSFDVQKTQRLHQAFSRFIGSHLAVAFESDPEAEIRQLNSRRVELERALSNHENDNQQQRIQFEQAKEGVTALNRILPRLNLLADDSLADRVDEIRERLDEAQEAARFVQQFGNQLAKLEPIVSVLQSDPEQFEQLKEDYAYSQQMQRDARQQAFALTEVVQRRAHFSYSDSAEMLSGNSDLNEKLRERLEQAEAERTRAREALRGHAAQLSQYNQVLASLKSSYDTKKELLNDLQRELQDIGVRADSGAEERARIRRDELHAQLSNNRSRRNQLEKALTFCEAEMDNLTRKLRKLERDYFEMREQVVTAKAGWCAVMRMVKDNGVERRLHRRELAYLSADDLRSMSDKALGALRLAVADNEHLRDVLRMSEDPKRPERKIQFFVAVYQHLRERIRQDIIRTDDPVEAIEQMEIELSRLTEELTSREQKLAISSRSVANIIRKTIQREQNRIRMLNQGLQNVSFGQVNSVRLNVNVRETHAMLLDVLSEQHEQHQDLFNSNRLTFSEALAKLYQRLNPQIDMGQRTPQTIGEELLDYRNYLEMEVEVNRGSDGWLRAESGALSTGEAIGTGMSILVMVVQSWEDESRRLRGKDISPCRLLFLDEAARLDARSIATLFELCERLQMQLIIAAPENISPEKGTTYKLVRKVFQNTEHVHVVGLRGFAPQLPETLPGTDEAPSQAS

[2] = target: Smc1-Smc3-Scc1 trimer (S. cerevisiae cohesin) (S. cerevisiae, UniProt P32908;P47037;Q12158); assay: SEC
Sequence of Smc1-Smc3-Scc1 trimer (S. cerevisiae cohesin) (P32908 whole entry, chain 1 of 3): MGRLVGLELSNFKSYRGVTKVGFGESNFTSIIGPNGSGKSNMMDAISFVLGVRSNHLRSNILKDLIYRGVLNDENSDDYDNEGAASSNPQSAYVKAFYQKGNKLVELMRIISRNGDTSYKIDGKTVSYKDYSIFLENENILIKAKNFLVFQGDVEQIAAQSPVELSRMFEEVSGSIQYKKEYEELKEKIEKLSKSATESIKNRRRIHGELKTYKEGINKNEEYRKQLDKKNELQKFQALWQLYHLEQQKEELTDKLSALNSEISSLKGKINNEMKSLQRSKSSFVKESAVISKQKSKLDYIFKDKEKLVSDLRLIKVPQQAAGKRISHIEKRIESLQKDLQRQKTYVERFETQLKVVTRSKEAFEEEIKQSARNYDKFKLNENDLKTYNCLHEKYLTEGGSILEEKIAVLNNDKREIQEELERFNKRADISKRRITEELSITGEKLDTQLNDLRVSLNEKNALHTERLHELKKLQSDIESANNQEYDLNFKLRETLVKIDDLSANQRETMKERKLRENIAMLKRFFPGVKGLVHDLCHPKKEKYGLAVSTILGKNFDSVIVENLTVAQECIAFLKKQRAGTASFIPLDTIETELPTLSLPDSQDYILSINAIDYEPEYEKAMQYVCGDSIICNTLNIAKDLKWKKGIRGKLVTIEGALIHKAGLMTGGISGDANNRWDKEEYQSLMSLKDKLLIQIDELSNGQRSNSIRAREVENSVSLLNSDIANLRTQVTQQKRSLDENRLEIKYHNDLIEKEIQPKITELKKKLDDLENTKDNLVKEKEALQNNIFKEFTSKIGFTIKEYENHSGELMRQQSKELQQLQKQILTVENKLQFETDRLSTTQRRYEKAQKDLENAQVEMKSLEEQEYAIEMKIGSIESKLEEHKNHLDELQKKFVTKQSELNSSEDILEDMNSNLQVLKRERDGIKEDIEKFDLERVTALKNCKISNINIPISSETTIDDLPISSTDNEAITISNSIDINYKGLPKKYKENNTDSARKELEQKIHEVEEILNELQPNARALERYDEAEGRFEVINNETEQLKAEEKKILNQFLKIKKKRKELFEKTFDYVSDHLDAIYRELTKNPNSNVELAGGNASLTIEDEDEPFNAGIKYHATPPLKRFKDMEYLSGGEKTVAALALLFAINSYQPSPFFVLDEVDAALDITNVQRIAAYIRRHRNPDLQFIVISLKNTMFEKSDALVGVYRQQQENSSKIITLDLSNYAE
Sequence of Smc1-Smc3-Scc1 trimer (S. cerevisiae cohesin) (P47037 whole entry, chain 2 of 3): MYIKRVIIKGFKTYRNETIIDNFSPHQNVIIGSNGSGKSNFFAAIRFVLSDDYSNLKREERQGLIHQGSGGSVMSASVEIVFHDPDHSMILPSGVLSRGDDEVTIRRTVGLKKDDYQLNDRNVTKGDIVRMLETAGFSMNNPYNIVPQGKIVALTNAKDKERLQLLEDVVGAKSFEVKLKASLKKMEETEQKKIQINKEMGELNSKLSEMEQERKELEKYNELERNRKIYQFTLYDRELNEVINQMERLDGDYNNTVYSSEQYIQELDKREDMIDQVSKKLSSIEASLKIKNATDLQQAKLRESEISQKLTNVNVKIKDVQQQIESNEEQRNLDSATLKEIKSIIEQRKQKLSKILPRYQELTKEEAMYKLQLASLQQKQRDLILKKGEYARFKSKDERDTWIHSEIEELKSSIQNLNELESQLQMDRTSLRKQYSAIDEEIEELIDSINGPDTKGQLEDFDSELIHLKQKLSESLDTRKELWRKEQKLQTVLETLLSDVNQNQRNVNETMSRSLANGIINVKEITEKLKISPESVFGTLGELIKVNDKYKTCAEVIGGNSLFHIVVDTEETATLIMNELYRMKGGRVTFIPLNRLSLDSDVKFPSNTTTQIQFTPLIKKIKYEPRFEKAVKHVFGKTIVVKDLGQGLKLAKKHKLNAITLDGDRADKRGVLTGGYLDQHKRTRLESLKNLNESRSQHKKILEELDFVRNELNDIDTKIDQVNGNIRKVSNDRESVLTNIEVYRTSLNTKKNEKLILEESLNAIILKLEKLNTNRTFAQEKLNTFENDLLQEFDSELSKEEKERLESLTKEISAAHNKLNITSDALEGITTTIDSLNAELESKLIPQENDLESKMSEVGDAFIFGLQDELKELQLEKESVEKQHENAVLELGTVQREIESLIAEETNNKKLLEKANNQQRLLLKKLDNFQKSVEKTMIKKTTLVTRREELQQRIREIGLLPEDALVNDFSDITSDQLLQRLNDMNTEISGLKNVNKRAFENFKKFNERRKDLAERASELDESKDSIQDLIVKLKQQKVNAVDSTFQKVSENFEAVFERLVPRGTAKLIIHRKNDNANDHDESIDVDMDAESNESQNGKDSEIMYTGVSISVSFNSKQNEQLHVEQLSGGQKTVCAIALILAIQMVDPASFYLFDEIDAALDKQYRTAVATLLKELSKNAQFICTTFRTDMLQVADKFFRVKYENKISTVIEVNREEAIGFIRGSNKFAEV
Sequence of Smc1-Smc3-Scc1 trimer (S. cerevisiae cohesin) (Q12158 whole entry, chain 3 of 3): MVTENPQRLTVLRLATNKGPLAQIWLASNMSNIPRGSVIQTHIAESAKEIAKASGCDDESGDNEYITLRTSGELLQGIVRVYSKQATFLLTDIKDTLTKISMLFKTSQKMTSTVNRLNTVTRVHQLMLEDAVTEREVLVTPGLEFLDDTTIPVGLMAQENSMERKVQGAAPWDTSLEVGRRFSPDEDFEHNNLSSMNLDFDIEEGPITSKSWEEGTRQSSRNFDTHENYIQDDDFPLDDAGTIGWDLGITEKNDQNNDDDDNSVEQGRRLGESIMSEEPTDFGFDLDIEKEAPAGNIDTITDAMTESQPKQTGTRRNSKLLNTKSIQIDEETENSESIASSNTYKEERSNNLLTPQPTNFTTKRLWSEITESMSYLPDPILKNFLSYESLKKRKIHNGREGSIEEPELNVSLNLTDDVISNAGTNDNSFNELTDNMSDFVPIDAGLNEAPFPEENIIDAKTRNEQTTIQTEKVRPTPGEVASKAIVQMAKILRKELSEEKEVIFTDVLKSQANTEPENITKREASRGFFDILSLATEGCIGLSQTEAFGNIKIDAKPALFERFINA

[3] = target: B1; assay: cross-linking
[4] = target: B1; assay: SEC

Binder	binding result [1]	binding result [2]	also measured
B1	binds		
Scc3 (S. cerevisiae cohesin HAWK protein), recombinant (natural protein) MTAVRRSTRIRTKSQVIEEDYDDEQNTSAQHVESDKITAKTQHEEEEEQDTGESEESSSEDDYEDQDDDDYVDTATAKRKSRKRKPKSASNTSSKRQKKKPTSAQKSAVSHAPAYHRSKKDQDQYLEIAKDFQPTELFDILSTSEDVSIEELLREWLETYSENRDKFLQEFINLLLNCCGSVARVEDHDVHSNESSNETIGEIQLLFQRQKLHEFYLLISKENKKRKNFKMGPLYQNFAEFMTKLLEVANDLQLLYVESDEDDTQIVTGNLVLDLLTWLSSFSVCKIRCFRYISTLTLYLFQDYLTQQAVNLEKNYLAKLSKQLSLEEKKKRPNNKTLEKLESTIAETQGSKVVIDSIIDNIVKLCFVHRYKDVSDLIRSESMLHLSIWIKNYPEYFLKVTFLKYFGWLLSDNSVSVRLQVTKILPHLIIQNHNSKSTDNSAIRQVFERFKTKILEVAIRDVNLDVRIHSIQVLTEASSLGYLDDSEILIISSLMFDEEFDPFKTSSFNKRSKFLSTVAKFLARVIKEKFDEFIKTHEDLPKEVDGLEVGPVVQVGIFIKILNDSLIYHLKDCAEVDSRTKIRMLTQAAEFLSPYISTHLKTICNLLISDTESNELIQKLQNSANNNSDDEDVDDEELDITPLFPIDRNSTILYLNVFHGLCAGANNPKIQTKDSVKEIVLPLFYDLLNAASIESADILCPLLESFITFSLDDWISIGYETELKKITDKTIKAFMDSTIGNSKVDMKYDIFAKFIHHIHHFEKKELQEKFLNQIATLKIHLKKFLQEKMDPNNSRDDYKDLTCSLYELYINKLTILGRDYPIEVDEELLQLFLNNFVSRIPIMFQDFDDSTAQEINFKMLVLLATWNLEKWREIIEKVRDYENSISKDLRSVWKPIAAIIGRLNTLVISLAATNETFENINSLFYLKWSACTSLMDIIVAIKIFELKLPADATTWRYSMSEQFPFYLHDNASKVLLKIFLYLESLFAKQVDVQLERVADEDANLNDLPETGFFENIETEFLLFTVKLKGLMKLNILDERFASRVALNKEKLGPLFKKIVDDTIMENPEPNKKNIQKAKSNQTQREKAPLQPNSERETDHANTENNDPDIPMTIDLEPIEESSQNNSELAPIEEHPTVVDAIDNSDEITQD		binds	
Scc2 residues 151-1493 (S. cerevisiae cohesin loader), recombinant (domain or fragment) SNAGNLSFNDNSSNKKTKTSTGVTMTQANLAEQYLNDLKNILDIVGFDQNSAEIGNIEYWLQLPNKKFVLTTNCLTKLQMTIKNITDNPQLSNSIEITWLLRLLDVMVCNIKFSKSSLKMGLDDSMLRYIALLSTIVLFNIFLLGKNDSNLHRESYIMEPVNFLSDLIESLKILTIEYGSLKIEFDTFQEALELLPKYIRNGPFLDDNVTAKLVYIFSDLLMNNDIEATTNIQFQSFWDNVKRISSDILVSLFGSFDQQRGFIIEELLSHIEKLPTKRIQKKLRKVGNQNIYITDFTFTLMSMLENINCYSFCNQMKDIAPENIDLLKNEYKKQEEFLFNIVEHINDTILERFFKNPSALRYVIDNFVQDLLLLISSPQWPVTEKILSSLLKRLLSVYSPSMQVSANIETICLQLIGNIGSTIFDIKCSTRDHEDNNLIKMINYPETLPHFFKSFEECIAYNETIKCRRSATRFLWNLRLGTILILEEYTKDAKEQIITVDNELKKILEQIKDGGLGPELENREADFSTIKLDYFSILHAFELLNLYDPYLKLILSLLAKDKIKLRSTAIKCLSMLASKDKVILSNPMVKETIHRRLNDSSASVKDAILDLVSINSSYFEFYQQINNNYNDDSIMVRKHVLRINEKMYDETNDIVTKVYVIARILMKIEDEEDNIIDMARLILLNRWILKVHEVLDQPEKLKEISSSVLLVMSRVAIMNEKCSQLFDLFLNFYLLNKEAHSKEAYDKITHVLTILTDFLVQKIVELNSDDTNEKNSIVDKQNFLNLLAKFADSTVSFLTKDHITALYPYMVSDEKSDFHYYILQVFRCTFEKLANFKQKFLYDLETTLLSRLPKMNVREIDEAMPLIWSVATHRHDTARVAKACSSCLSHLHPYINKANNEEAAIVVDGKLQRLIYLSTGFARFCFPKPSNDKIAFLQEGETLYEHITKCLLVLSKDKITHVIRRVAVKNLTKLCGNHPKLFNSRHVLHLLDKEFQSDQLDIKLVILESLYDLFLLEERKSVRNTGVNSTLSSNSILKKKLLKTNRVEFANDGVCSALATRFLDNILQLCLLRDLKNSLVAIRLLKLILKFGYTNPSHSIPTVIALFASTSQYIRHVAYELLEDLFEKYETLVFSSLSRGVTKAIHYSIHTDEKYYYKHDHFLSLLEKLCGTGKKNGPKFFKVLKRIMQSYLDDITDLTSTNSSVQKSIFVLCTNISNITFVSQYDLVSLLKTIDLTTDRLKEVIMDEIGDNVSSLSVSEEKLSGIILIQLSLQDLGTYLLHLYGLRDDVLLLDIVEESELKNKQLPAKKPDISKFSAQLENIEQYSSNGKLLTYFRKHVKDT		binds	
MukE (E. coli KITE protein of MukBEF), untagged, from the co-expressed holocomplex (natural protein) MSSTNIEQVMPVKLAQALANPLFPALDSALRSGRHIGLDELDNHAFLMDFQEYLEEFYARYNVELIRAPEGFFYLRPRSTTLIPRSVLSELDMMVGKILCYLYLSPERLANEGIFTQQELYDELLTLADEAKLLKLVNNRSTGSDVDRQKLQEKVRSSLNRLRRLGMVWFMGHDSSKFRITESVFRFGADVRAGDDPREAQRRLIRDGEAMPIENHLQLNDETEENQPDSGEEE	binds		binding result [3]: binds
MukE (E. coli) made as His6-SUMO-MukE for the MukEF preparation (natural protein) MSSTNIEQVMPVKLAQALANPLFPALDSALRSGRHIGLDELDNHAFLMDFQEYLEEFYARYNVELIRAPEGFFYLRPRSTTLIPRSVLSELDMMVGKILCYLYLSPERLANEGIFTQQELYDELLTLADEAKLLKLVNNRSTGSDVDRQKLQEKVRSSLNRLRRLGMVWFMGHDSSKFRITESVFRFGADVRAGDDPREAQRRLIRDGEAMPIENHLQLNDETEENQPDSGEEE			binding result [4]: binds
MukEF complex (E. coli) (complex) chain 1: MSSTNIEQVMPVKLAQALANPLFPALDSALRSGRHIGLDELDNHAFLMDFQEYLEEFYARYNVELIRAPEGFFYLRPRSTTLIPRSVLSELDMMVGKILCYLYLSPERLANEGIFTQQELYDELLTLADEAKLLKLVNNRSTGSDVDRQKLQEKVRSSLNRLRRLGMVWFMGHDSSKFRITESVFRFGADVRAGDDPREAQRRLIRDGEAMPIENHLQLNDETEENQPDSGEEE chain 2: MSEFSQTVPELVAWARKNDFSISLPVDRLSFLLAVATLNGERLDGEMSEGELVDAFRHVSDAFEQTSETIGVRANNAINDMVRQRLLNRFTSEQAEGNAIYRLTPLGIGITDYYIRQREFSTLRLSMQLSIVAGELKRAADAAEEGGDEFHWHRNVYAPLKYSVAEIFDSIDLTQRLMDEQQQQVKDDIAQLLNKDWRAAISSCELLLSETSGTLRELQDTLEAAGDKLQANLLRIQDATMTHDDLHFVDRLVFDLQSKLDRIISWGQQSIDLWIGYDRHVHKFIRTAIDMDKNRVFAQRLRQSVQTYFDEPWALTYANADRLLDMRDEEMALRDEEVTGELPEDLEYEEFNEIREQLAAIIEEQLAVYKTRQVPLDLGLVVREYLSQYPRARHFDVARIVIDQAVRLGVAQADFTGLPAKWQPINDYGAKVQAHVIDKY	binds		
